# Measurements from FireProtDB (doi:10.1016/0022-2836(92)90562-x).
# B1: Ribonuclease wild type, P00648 (protein)
# chain: MMKMEGIALKKRLSWISVCLLVLVSAAGMLFSTAAKTETSSHKAHTEAQVINTFDGVADYLQTYHKLPDNYITKSEAQALGWVASKGNLADVAPGKSIGGDIFSNREGKLPGKSGRTWREADINYTSGFRNSDRILYSSDWLIYKTTDHYQTFTKIR
# Conditions: Bacillus amyloliquefaciens; pH 6.3; 25 °C; Urea; Fluorescence; MES-NaOH 450 mM; reversible: yes; whole UniProt chain shown
protein,measurement,value
B1,denaturant m value,1.93 kcal/mol/M
same,denaturant midpoint (higher = more stable),4.57 M
same,unfolding free energy,8.82 kcal/mol
